{"source": "paper PMC5965902", "target": "Cys128 (UniProt position 128, FIDQHCSLMKV)", "experiment": "chemical modification (DTNB/Ellman labelling kinetics followed by UV-vis)", "settings": "room temperature; 150 mM NaCl; 50 mM citric acid, 50 mM HEPES, 50 mM Bicine, pH adjusted with NaOH or HCl; Free (reduced) thiol form of RitR, 5 μM protein with 20 μM DTNB, no DNA", "data": [{"substance": "RitR (Repressor of iron transport Regulator), orphan two-component-like response regulator (Streptococcus pneumoniae (strain R800, R6/D39 derivative))", "values": [{"measurement": "pKa", "value": 6.85}]}]}
